Data: US7985889B2, “AtMIN7 mediated disease resistance to Pseudomonas syringae in Arabidopsis” (priority 2007, dated 2011)
Residues, ends and D or L forms follow the SMILES beside them. *: point of attachment. Cbz = O=C(OCc1ccccc1)*

Legend:
[1] = system: transgenic plants expressing full-length HopM1; assay: DEX spraying of transgenic plants expressing full-length HopM1: leaf necrosis; type: in vivo, Arabidopsis
Method: (§1) Following inoculation, infected plants were monitored daily over a 3- to 4-day period for symptom development and bacterial multiplication. For experiments described in FIGS. 1 and 5, plants were sprayed with 30 μM dexamethasone (DEX) 24 h before bacterial inoculation (1×10^6 cfu/ml).

[2] = system: HopM1-mediated destabilization of AtMIN7; assay: Immunoblot of HopM1-mediated destabilization of AtMIN7 with protease/proteasome inhibitors; type: cell-based; settings: N. benthamiana leaves co-expressing AtMIN7::HA and 6×His::HopM11-712
Source text: AtMIN-HA and 6×His-HopM1 proteins were detected using the HA and 6×His epitope antibodies, respectively. […] AtMIN7::HA and 6×His::HopM11-712 proteins were detected with HA and 6×His epitope antibodies, respectively.

[3] = system: Pst DC3000 ΔCEL mutant; assay: Complementation of virulence defect in transgenic Arabidopsis expressing HopM1 or truncated derivatives; type: in vivo; settings: protein expressed in transgenic Arabidopsis after DEX
Method: as §1
(§2) Leaves were harvested and surface sterilized as follows: 1) whole leaves were removed from a host plant and gently mixed in a 70% ethanol solution for 1 minute. Leaves were blotted briefly on paper towels then rinsed in sterile distilled water for 1 minute, then blotted dry on paper towels. Leaf disks were excised from leaves with a 0.5 cm^2 or smaller cork borer, depending on the size of the sample leaves; 2) leaf disks from the leaves of 2 or more independent replicate plants were pooled for a single tissue sample and placed in a 1.5-mL microfuge tube with 100 μL sterile distilled water, the amount of leaf tissue per tube was recorded as leaf surface area. Three or more samples were harvested for each time point. […] The number of serial dilutions necessary to get countable colonies were determined for each sample, however dilutions to 10^−7 were usually sufficient for any bacterial strain; 7) The samples were plated on the appropriate medium (e.g., Low salt Luria Bertani) supplemented with the necessary antibiotics to select for the specific inoculated bacterial strain. […]

[4] = target: T1, AtMIN7-HA (Arabidopsis thaliana, UniProt F4IXW2, DEL212-213/INS429[…]); assay: Protein pull-down assay and immunoblot in N. benthamiana leaves; type: binding; settings: transient co-expression in N. benthamiana leaves, Ni-NTA pull-down
T1 construct: expressed in transfected cells; host or cells: Nicotiana benthamiana leaves, Agrobacterium tumefaciens C58C1 co-infiltration (pBI121-AtMIN or pBAR1-AtMIN)
T1 sequence (F4IXW2 with tags, fused parts or gaps DEL212-213/INS429[withheld]): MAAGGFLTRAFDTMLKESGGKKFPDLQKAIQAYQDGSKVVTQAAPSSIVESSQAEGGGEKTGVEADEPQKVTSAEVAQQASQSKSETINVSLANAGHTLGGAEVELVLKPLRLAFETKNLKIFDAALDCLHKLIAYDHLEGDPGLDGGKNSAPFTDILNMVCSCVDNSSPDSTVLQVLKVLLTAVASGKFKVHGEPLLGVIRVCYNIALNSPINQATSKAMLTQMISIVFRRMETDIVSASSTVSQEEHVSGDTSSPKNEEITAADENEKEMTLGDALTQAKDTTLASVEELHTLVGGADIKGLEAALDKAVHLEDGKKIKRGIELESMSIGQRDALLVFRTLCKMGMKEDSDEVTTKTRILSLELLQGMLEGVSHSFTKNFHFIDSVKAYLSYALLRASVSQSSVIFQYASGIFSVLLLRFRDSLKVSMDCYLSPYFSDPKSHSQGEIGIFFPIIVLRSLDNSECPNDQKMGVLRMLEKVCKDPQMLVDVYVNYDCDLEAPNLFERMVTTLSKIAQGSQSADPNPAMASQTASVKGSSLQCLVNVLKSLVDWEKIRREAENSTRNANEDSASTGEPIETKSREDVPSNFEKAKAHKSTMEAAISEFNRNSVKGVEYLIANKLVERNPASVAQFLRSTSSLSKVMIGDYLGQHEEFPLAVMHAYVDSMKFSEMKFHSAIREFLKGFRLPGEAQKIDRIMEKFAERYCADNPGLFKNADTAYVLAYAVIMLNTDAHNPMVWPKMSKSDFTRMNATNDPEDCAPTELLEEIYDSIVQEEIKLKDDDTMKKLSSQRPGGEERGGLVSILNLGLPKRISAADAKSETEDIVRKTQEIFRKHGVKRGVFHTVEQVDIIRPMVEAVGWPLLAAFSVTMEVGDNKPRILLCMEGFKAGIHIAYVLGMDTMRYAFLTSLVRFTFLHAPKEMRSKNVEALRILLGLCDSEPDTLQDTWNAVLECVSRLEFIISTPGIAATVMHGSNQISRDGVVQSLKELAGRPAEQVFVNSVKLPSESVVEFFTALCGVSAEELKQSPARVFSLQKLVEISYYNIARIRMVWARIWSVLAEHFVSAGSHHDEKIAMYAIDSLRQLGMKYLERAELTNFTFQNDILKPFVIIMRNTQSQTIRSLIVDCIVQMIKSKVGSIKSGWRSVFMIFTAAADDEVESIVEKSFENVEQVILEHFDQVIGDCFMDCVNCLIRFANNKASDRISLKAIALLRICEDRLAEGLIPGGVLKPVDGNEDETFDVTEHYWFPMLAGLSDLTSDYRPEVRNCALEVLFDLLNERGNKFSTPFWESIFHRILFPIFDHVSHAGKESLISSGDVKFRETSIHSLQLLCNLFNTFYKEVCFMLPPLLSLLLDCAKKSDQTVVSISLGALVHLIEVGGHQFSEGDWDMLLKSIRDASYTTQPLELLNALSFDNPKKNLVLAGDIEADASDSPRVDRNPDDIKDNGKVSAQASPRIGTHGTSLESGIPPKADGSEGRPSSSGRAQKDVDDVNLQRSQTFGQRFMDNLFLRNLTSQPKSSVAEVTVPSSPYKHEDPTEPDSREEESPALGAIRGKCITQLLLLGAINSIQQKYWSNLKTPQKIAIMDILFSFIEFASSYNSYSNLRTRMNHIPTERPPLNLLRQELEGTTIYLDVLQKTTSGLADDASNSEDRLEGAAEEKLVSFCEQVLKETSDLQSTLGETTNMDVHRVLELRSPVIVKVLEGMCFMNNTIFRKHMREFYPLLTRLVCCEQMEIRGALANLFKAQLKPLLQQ
Source text: N. benthamiana plants were transiently transformed with HopM1 and AtMIN proteins. In brief, fully expanded N. benthamiana leaves were co-infiltrated with Agrobacterium tumefaciens C58 C1 (for an example of co-infiltration techniques, see, Hellens, et al. (2005) Plant Methods, 1:13; herein incorporated by reference) comprising plasmids and genes described herein (for example, see, Bechtold, et al. (1993) Comptes Rendus De L Academie Des Sciences Serie Iii-Sciences De La Vie-Life Sciences 316(10):1194-1199; herein incorporated by reference).
In brief: leaf disc fractions were homogenized in 1×SDS-polyacrylamide gel electrophoresis (PAGE) sample buffer, boiled for 5 min, and centrifuged for 2 minutes. Proteins in the supernatant were separated on SDS-PAGE gels and transferred to Immobilon-P membrane for immunoblotting procedures (Millipore Corp., Bedford, Mass.).
Protein pull-down analysis methods: N. benthamiana leaf discs were homogenized in lysis buffer (50 mM Tris-HCl pH=8.0, 250 mM NaCl, 10 mM β-mercaptoethanol, 1% Triton X100, 1 mM PMSF, plant protease inhibitor cocktail [Sigma Co.]). Total protein extracts were collected after centrifugation of the homogenate at 20,000-x g for 15 min at 4° C. to remove insoluble materials. […] AtMIN10-HA was detected using the HA epitope antibody.

[5] = system: Pst DC3000 ΔCEL mutant-pORF43 bacteria; assay: Bacterial multiplication and disease symptoms in transgenic Arabidopsis expressing HopM1 truncated derivatives; type: in vivo; settings: fragment expressed in transgenic Arabidopsis, compared with Col-0 gl1 or other truncated derivatives
Method: as §1, §2

[6] = system: Pst DC3000; assay: as above; type: in vivo; settings: fragment expressed in transgenic Arabidopsis
Method: as §1, §2

[7] = system: AtMIN7; assay: Detection of polyubiquitinated AtMIN7 in planta (western blot, ubiquitin antibody); type: cell-based, Nicotiana benthamiana; settings: MG132-treated N. benthamiana leaves
Source text: Left: AtMIN7::HA and 6×His::HopM1-300, 6×His::HopM301-712 or 6×His::HopM1-712 were transiently co-expressed in MG132-treated N. benthamiana leaves. Ubiquitinated proteins were detected by western blot (WB) with a polyclonal ubiquitin (Ub) antibody (Sigma Co.). Right: AtMIN7::HA and 6×His::HopM1-712 were transiently co-expressed in 1% DMSO(−)- or MG132-treated N. benthamiana leaves. AtMIN7 was immunoprecipitated (IP) using a polyclonal AtMIN7 antibody. Ubiquitinated AtMIN7 protein was detected by western blot (WB) with a polyclonal ubiquitin (Ub) antibody (Sigma Co.). See Materials and Methods for transient expression and immunoprecipitation of AtMIN7 and HopM1 in N. benthamiana leaves.

For `C[C@@H]1C[C@H]2[C@@H]3CCC4=CC(=O)C=C[C@]4(C)[C@@]3(F)[C@@H](O)C[C@]2(C)[C@@]1(O)C(=O)CO` [DEX, dexamethasone], the leaf necrosis ([1]; 0.003 μM DEX spray) was “did not induce leaf necrosis” and the “time to rapid leaf necrosis” value ([1]; 30 μM DEX spray) was ≤ 10 h.

In the case of `CC(C)C[C@@H](C=O)NC(=O)[C@H](CC(C)C)NC(=O)[C@H](CC(C)C)NC(=O)OCc1ccccc1` [MG132] (Cbz-Leu-Leu-Leu-aldehyde), the “effect on HopM1-mediated destabilization of AtMIN7” value [2] is reported as “blocked”.

For `CC[C@H](C)[C@H](NC(=O)[C@H]([C@@H](C)CC)N(C)C(C)=O)C(=O)N[C@H](C(=O)N[C@@H](CC(C)C)C(=O)[C@@]1(C)CO1)[C@@H](C)O` [epoxomicin], the “effect on HopM1-mediated destabilization of AtMIN7” value [2] was “blocked”.

B1: HopM1101-712: HopM1 truncated derivative lacking the first 100 aa (SEQ ID NO:98) (protein, listed as Pseudomonas syringae)
chain: LLQAFKAEHGTAPVSGAPMISSRAALLIGSLLQAEPLPFEVMAEKLSPERYQLKQFQGSDLQQRLEKFAQPGQIPDKAEVGQLIKGFAQSVADQLEHFQLMHDASPATVGQHAKADKATLAVSQTALGEYAGRASKAIGEGLSNSIASLDEHISALDLTLQDAEQGNKESLHADRQALVDAKTTLVGLHADFVKSPEAKRLASVAAHTQLDNVVSDLVTARNTVGGWKGAGPIVAAAVPQFLSSMTHLGYVRLSTSDKLRDTIPETSSDANMLKASIIGMVAGIAHETVNSVVKPMFQAALQKTGLNERLNMVPMKAVDTNTVIPDPFELKSEHGELVKKTPEEVAQDKAFVKSERALLNQKKVQGSSTHPVGELMAYSAFGGSQAVRQMLNDVHQINGQTLSARALASGFGGAVSASSQTLLQLKSNYVDPQGRKIPVFTPDRAESDLKKDLLKGMDLREPSVRTTFYSKALSGIQSSALTSALPPVTAQAEGASGTLSAGAILRNMALAATGSVSYLSTLYTNQSVTAEAKALKAAGMGGATPMLDRTETALNNIRHPNRESLPHTFQKSTLSGIPRVAENAYHMGRGALQLPTQMAVDTVRVVDEGVLNAVASAREALKQPTKDDDALRALEEGLLDPR
B1 was tested, and the “complementation of the virulence defect (multiplication, chlorosis) of the Pst DC3000 ΔCEL mutant” value [3] was “partially restored”.

B2: 6×His-HopM1301-712: 6×His-tagged C-terminal HopM1 fragment, amino acids 301-712 (protein)
chain: GPIVAAAVPQFLSSMTHLGYVRLSTSDKLRDTIPETSSDANMLKASIIGMVAGIAHETVNSVVKPMFQAALQKTGLNERLNMVPMKAVDTNTVIPDPFELKSEHGELVKKTPEEVAQDKAFVKSERALLNQKKVQGSSTHPVGELMAYSAFGGSQAVRQMLNDVHQINGQTLSARALASGFGGAVSASSQTLLQLKSNYVDPQGRKIPVFTPDRAESDLKKDLLKGMDLREPSVRTTFYSKALSGIQSSALTSALPPVTAQAEGASGTLSAGAILRNMALAATGSVSYLSTLYTNQSVTAEAKALKAAGMGGATPMLDRTETALNNIRHPNRESLPHTFQKSTLSGIPRVAENAYHMGRGALQLPTQMAVDTVRVVDEGVLNAVASAREALKQPTKDDDALRALEEGLLDPR
modifications: left off: small tags and cut ends
In the case of B2, the “physical interaction with AtMIN7-HA” value [4] is reported as “no interaction”.

B3: HopM11-300: N-terminal protective fragment of HopM1, amino acids 1-300 (SEQ ID NO:82) (protein, listed as Pseudomonas syringae)
chain: MISSRIGGAGGVELSRVNQQHDTVPAQTAHPNAVTAGMNPPLTPDQSGSHATESSSAGAARLNVAARHTQLLQAFKAEHGTAPVSGAPMISSRAALLIGSLLQAEPLPFEVMAEKLSPERYQLKQFQGSDLQQRLEKFAQPGQIPDKAEVGQLIKGFAQSVADQLEHFQLMHDASPATVGQHAKADKATLAVSQTALGEYAGRASKAIGEGLSNSIASLDEHISALDLTLQDAEQGNKESLHADRQALVDAKTTLVGLHADFVKSPEAKRLASVAAHTQLDNVVSDLVTARNTVGGWKGA
For B3, the “disease symptoms (necrosis and chlorosis) and bacterial multiplication within plants” value [5] was “significantly reduced”, the “susceptibility to Pst DC3000” value [6] was “still susceptible” and the “physical interaction with AtMIN7-HA” value [4] was “physical interaction”.

B4: full-length HopM1: Pst DC3000 HopM1, a 712-aa type III effector virulence protein (SEQ ID NO:34) (protein)
chain: MISSRIGGAGGVELSRVNQQHDTVPAQTAHPNAVTAGMNPPLTPDQSGSHATESSSAGAARLNVAARHTQLLQAFKAEHGTAPVSGAPMISSRAALLIGSLLQAEPLPFEVMAEKLSPERYQLKQFQGSDLQQRLEKFAQPGQIPDKAEVGQLIKGFAQSVADQLEHFQLMHDASPATVGQHAKADKATLAVSQTALGEYAGRASKAIGEGLSNSIASLDEHISALDLTLQDAEQGNKESLHADRQALVDAKTTLVGLHADFVKSPEAKRLASVAAHTQLDNVVSDLVTARNTVGGWKGAGPIVAAAVPQFLSSMTHLGYVRLSTSDKLRDTIPETSSDANMLKASIIGMVAGIAHETVNSVVKPMFQAALQKTGLNERLNMVPMKAVDTNTVIPDPFELKSEHGELVKKTPEEVAQDKAFVKSERALLNQKKVQGSSTHPVGELMAYSAFGGSQAVRQMLNDVHQINGQTLSARALASGFGGAVSASSQTLLQLKSNYVDPQGRKIPVFTPDRAESDLKKDLLKGMDLREPSVRTTFYSKALSGIQSSALTSALPPVTAQAEGASGTLSAGAILRNMALAATGSVSYLSTLYTNQSVTAEAKALKAAGMGGATPMLDRTETALNNIRHPNRESLPHTFQKSTLSGIPRVAENAYHMGRGALQLPTQMAVDTVRVVDEGVLNAVASAREALKQPTKDDDALRALEEGLLDPR
modifications: Pseudomonas syringae pv. tomato str. DC3000
B4 was tested, and the “complementation of the virulence defect (multiplication, chlorosis) of the Pst DC3000 ΔCEL mutant” value [3] was “almost fully complemented” and the “polyubiquitination of AtMIN7 in vivo” value [7] was “enhanced”.
